In test [1] the target is Fluc^A12C-K329C (Fluc^NDS1, N-terminal domain sensor) (firefly). As to the kind of experiment: FRET or BRET; single-molecule FRET (TIRF) within AF555/AF647-labelled Fluc immobilised on a neutravidin coverslip; the low-FRET (<0.3) state is read as DnaK bound; DnaJ 0.6 uM, DnaK 20 uM, GrpE 1.2 uM and HtpG 10 uM (KJEG); ATP; imaging buffer, room temperature.
Test [2] has as its target Fluc^K378C-K496C (Fluc^CDS1, C-terminal domain sensor) (firefly). Described as above.

As to “DnaK (Escherichia coli Hsp70) (from UniProt P0A6Y8 1-638) (natural protein)”, the percent of the time DnaK bound (<0.3 FRET) after 15 min in test [1] and in test [2] was 15% throughout.
